What is called stoichiometry N is a count of units in the complex or per binding partner.

The experiment has as its target Zt-KP4-1 (Zt-NIP1) (Zymoseptoria tritici). Description: SEC. (In gel filtration, larger molecules generally elute earlier.)

Take Zt-KP4-1 (Zt-NIP1) (natural protein): the stoichiometry N worked out at 2.

The values are drawn from publication doi:10.1101/2024.10.14.618152.
